± gives the standard deviation.
Assay: protein stability index of a GFP-peptide fusion (GPS, HEK-293T) (PSI 1-6); higher = more stable
[1] = treatment: DMSO, c terminus: a fixed tail appended
[2] = treatment: MLN4924 1 uM, 8 h, c terminus: a fixed tail appended
[3] = treatment: DMSO, c terminus: native
[4] = treatment: MLN4924 1 uM, 8 h, c terminus: native
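Further: 24-mer peptide tiles fused after GFP, lentivirally expressed, FACS-sorted into six equal bins by GFP/DsRed ratio, decoded by Illumina sequencing, PSI is the read-weighted mean bin number.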

Row | Sequence | protein stability index [1] | protein stability index [2] | protein stability index [3] | protein stability index [4]
1 | VVFGLLLSYVMSGYRCFVCPVEYN [CDS2] | 3.55 ± 0.062 | 3.41 ± 0.31 |  | 
2 | QAEKRAAEKVSEARKRKNRRLKQA [ATP6V1G1] | 5.47 ± 0.51 | 5.33 ± 0.41 |  | 
3 | QGNSVDRMAAPRAEALFDFTGNSK [NCF4] | 4.7 ± 0.15 | 4.79 ± 0.17 |  | 
4 | WFLSKTEELNKEVASNSELVQSSR [KRT16] | 3.86 ± 0.39 | 3.96 ± 0.17 |  | 
5 | KFNGITEKEYKTYKENFLKRFQLT [USP39] | 3.59 ± 0.12 | 3.86 ± 0.15 |  | 
6 | VPWNQVGMRDADYIAAFLHVLLPV [HDAC6] |  | 2.07 ± 1.5 |  | 
7 | SSFLSFAELFSYVLQDRAAKGSLG [FEM1A] | 2.58 ± 0.35 | 2.55 ± 0.81 |  | 
8 | DRDKRDFVSAGAAAGVAAAFGAPI [CLCN6] | 4.12 ± 0.096 | 4.24 ± 0.19 |  | 
9 | EFYLLELMDCCLIVYHPYRPLLQY [CCNC] | 3.08 ± 1.3 | 2.98 ± 0.45 |  | 
10 | ASVSSHRFFGPNAEISQPPALSQL [TCF25] | 3.35 ± 0.46 | 3.29 ± 0.35 |  | 
11 | LTTEKQNFLLFDMTTHPLTNNNIK [GOLPH3] | 2.98 ± 0.18 | 3.09 ± 0.17 |  | 
12 | PAVPFAPHFLQGGPFPLPYTAPGG [TBX6] | 2.95 ± 0.097 | 3.03 ± 0.14 |  | 
13 | VFPGARLLTIGDANGEIQRHAEQQ [CARM1] | 4.64 ± 0.16 | 4.23 ± 0.2 |  | 
14 | PILQGQIDALLEFDVHPNELTNGV [SNAP91] | 3.42 ± 0.29 | 3.4 ± 0.45 |  | 
15 | TFFCTNATIHGAIRLVCSRGNRLK [SCNN1D] | 2.54 ± 0.27 | 2.41 ± 0.41 |  | 
16 | PDAWCDLSKFDLPEEPSAEDSINN [MYBL2] | 5.52 ± 0.12 | 5.42 ± 0.31 |  | 
17 | RALVRQFGQQDWKFLASHFPNRTD [MYBL2] | 3.09 ± 0.41 | 2.93 ± 0.19 |  | 
18 | DRLRRNWPPSFLSEFRALQFSLML [SPNS1] | 2.65 ± 0.6 | 2.31 ± 0.51 |  | 
19 | DCMSRELVSLTSRNPDQRKESLCI [FBXO34] | 3.93 ± 0.57 | 4.11 ± 0.32 |  | 
20 | QEILELIDREVDLMMRGVKHHNLE [IQUB] | 2.67 ± 0.46 | 2.64 ± 0.5 |  | 
21 | PIIVVPDPPSSSEECPAHLLEDPL [RHOBTB2] | 5.2 ± 0.1 | 4.81 ± 0.3 |  | 
22 | YLNLDTWEWNELIPQGICPVGRSW [KLHDC2] | 2.79 ± 1.1 | 2.39 ± 0.42 |  | 
23 | DKEVRAASTEADKRLSRFDIEMSM [NLN] | 4.39 ± 0.32 | 4.74 ± 0.32 |  | 

Row | Sequence | protein stability index [1] | protein stability index [2] | protein stability index [3] | protein stability index [4]
24 | EHRHLNPDTELKRYFGARAILGEQ [TCF25] | 3.46 ± 0.32 | 3.47 ± 0.54 |  | 
25 | QISIYGVKILEPKTKEVQHNCQLH [GULP1] | 2.58 ± 0.37 | 2.85 ± 0.39 |  | 
26 | VDDVSVSLRLWDTFGDHHKDRRFA [RHOBTB2] | 3.28 ± 0.23 | 3.19 ± 0.28 |  | 
27 | FSFKVSRWMGLACFRSLAASSPSI [CCDC70] | 2.2 ± 0.34 | 2.63 ± 0.53 |  | 
28 | PLEYQFKSQIMSLSHSPQEDWVLL [TLE6] | 2.26 ± 0.29 | 2.37 ± 0.4 |  | 
29 | LVDFCNKPILLHQVEALAAAGVDH [GMPPB] | 2.65 ± 0.31 | 2.95 ± 0.35 |  | 
30 | DVKDKETTENENTKFEVRLLRDPA [CHGB] | 4.33 ± 0.41 | 4.7 ± 0.3 |  | 
31 | FKTGNSTATCTTNNNPNSCVNIKK [KCNA3] | 4.53 ± 0.15 | 4.58 ± 0.36 |  | 
32 | GCDRIIGSKKKFDKCMVCGGDGSG [ADAMTS4] | 3.21 ± 0.34 | 4.053 ± 0.022 |  | 
33 | TNLLEGAVAFMPEDITKGTQSLPT [AUP1] | 4.55 ± 0.12 | 4.47 ± 0.17 |  | 
34 | EMIITKAGRRMFPSYKVKVTGLNP [TBX5] | 2.12 ± 0.14 | 2.4 ± 0.32 |  | 
35 | VVNESTVCLMGHERRQTLNLISLL [TENT5C] | 2.18 ± 0.23 | 2.31 ± 0.12 |  | 
36 | KALNLLPANTQINDIRIFLEKVLE [VPS39] | 2.11 ± 0.41 | 2.04 ± 0.29 |  | 
37 | EQEPELSFLKQKEQLEAEAQALRQ [PBXIP1] | 5.42 ± 0.19 | 5.29 ± 0.21 |  | 
38 | IALGQMLSLCICGTAITSQYLAER [SLC35F2] | 3.37 ± 0.27 | 2.48 ± 0.16 |  | 
39 | RLDGQQEPQPFVTSDVYSSDAAFG [MYORG] | 4.56 ± 0.26 | 4.63 ± 0.14 |  | 
40 | LDAMNYHLMPFRQHCRQSLASRIR [KLHL14] | 2.48 ± 0.46 | 2.2 ± 0.24 |  | 
41 | KSKPDRKRAESDSRKSSIPNNKEI [PTPRD] | 5.329 ± 0.046 | 5.46 ± 0.16 |  | 
42 | EELKAELVQLEDEITTLRQVLSAK [TPD52L1] | 4.34 ± 0.32 | 4.22 ± 0.28 |  | 
43 | ETRRLSIGLDNGTISEFILSEDYN [WDFY2] | 3.84 ± 0.34 | 4.03 ± 0.3 |  | 
44 | ADHGEPIGRGTKVILHLKEDQTEY [HSP90AB1] | 4.76 ± 0.2 | 4.89 ± 0.29 |  | 
45 | QFILERGEYPRWDAWSGSNAYHIE [CRYBA1] | 2.31 ± 0.17 | 2.19 ± 0.18 |  | 
46 | HQVPTTAGNKAALLDQIREGAQLK [WASL] | 4.95 ± 0.18 | 4.86 ± 0.33 |  | 

Row | Sequence | protein stability index [1] | protein stability index [2] | protein stability index [3] | protein stability index [4]
47 | SPELQEEFGYNAETQKLLCKNGET [ARFIP2] | 5.31 ± 0.29 | 5.46 ± 0.11 |  | 
48 | TEDIQTRQYRSIEVLIGAGYSTPA [SRPK2] | 2.94 ± 0.4 | 2.87 ± 0.5 |  | 
49 | SEFQAALSRKVAKLVHFLLLKYRA [MAGEA6] | 2.45 ± 0.56 | 2.13 ± 0.29 |  | 
50 | AQEEEEEDQGRTRKRKQSGHSPAR [DDIT3] | 5.47 ± 0.31 | 5.7 ± 0.24 |  | 
51 | QADLELIESAHRSRIKVLETSYQQ [FBF1] | 5.22 ± 0.16 | 5.11 ± 0.12 |  | 
52 | RVLMYGSELDADHPGFKDNVYRKR [TPH1] | 3.59 ± 0.11 | 3.8 ± 0.29 |  | 
53 | PEGVNKLKISPVTLKEAYVQKLVK [TENT5C] | 2.94 ± 0.35 | 2.93 ± 0.41 |  | 
54 | RAWEVDWFSLASVIFLLLFAPFIV [DHCR7] | 2.43 ± 0.45 | 2.65 ± 0.57 |  | 
55 | RTHINAVVAKIQAKIPGAKRHAE [RTN1] |  |  | 2.74 ± 0.25 | 3.04 ± 0.36
56 | CMSIVTSMTAGVSEREANDALNAY [INTS3] | 3.41 ± 0.3 | 3.49 ± 0.21 |  | 
57 | ESHKAKNESWIKSHFSRLSEEKLA [C10orf62] | 3.81 ± 0.17 | 3.86 ± 0.35 |  | 
58 | TATCTTNNNPNSCVNIKKIFTDV [KCNA3] |  |  | 4.08 ± 0.24 | 3.97 ± 0.11
59 | IFLGFSSLARLQQLLFVIFLLLYL [OR10K2] | 2.65 ± 0.58 | 2.31 ± 0.52 |  | 
60 | LEYLYTANVTLSLDTVEEVLSVSK [KLHL14] | 2.41 ± 0.66 | 1.96 ± 0.36 |  | 
61 | NGVRVFPPAMPPPATHLSPALAPV [TRIM9] | 3.22 ± 0.28 | 3.34 ± 0.14 |  | 
62 | CINIPGSYVCRCKQGYILNSDQTT [MATN2] | 2.43 ± 0.17 | 2.4 ± 0.35 |  | 
63 | GGLQKMVALLNKTNVKFLAITTDC [CTNNB1] | 2.73 ± 0.61 | 2.45 ± 0.46 |  | 
64 | MTETDAFYKREMFDPAEKYKMDHR [CASP6] | 4.05 ± 0.25 | 4.1 ± 0.29 |  | 
65 | RASGEHVTDEEIESLMKDGDKNND [TNNC2] | 5.66 ± 0.12 | 5.68 ± 0.2 |  | 
66 | RSGHTQTDYINASFMDGYKQKNAY [PTPN9] | 3.52 ± 0.2 | 3.61 ± 0.18 |  | 
67 | VKYVGNMHGNEALGRELMLQLSEF [CPN1] | 2.24 ± 0.2 | 2.25 ± 0.39 |  | 
68 | CKLQEQLEATVKKLEESKQLLKNN [SASS6] | 3.7 ± 0.15 | 3.47 ± 0.26 |  | 
69 | GTPGTPSYPRTPHTPGTPKSAILV [MAP2] | 3.1 ± 0.12 | 3.24 ± 0.35 |  | 

Row | Sequence | protein stability index [1] | protein stability index [2] | protein stability index [3] | protein stability index [4]
70 | DCARRILAREGVAAFYKGYVPNML [SLC25A25] | 2.12 ± 0.11 | 2.11 ± 0.29 |  | 
71 | KNGKKWEILNFNQYYEACRKAAKS [ACSBG2] | 2.49 ± 0.21 | 2.62 ± 0.57 |  | 
72 | IMIIICCVILGIVIASTVGGIFA [STX1A] |  |  | 3.62 ± 0.33 | 3.79 ± 0.14
73 | VGRIANTYNLTEVDKYVNSFVLKN [KLHL13] | 2.64 ± 0.32 | 2.85 ± 0.45 |  | 
74 | GSLILPPGPGGTMKRHSSRDAAGK [FCHO1] | 4.68 ± 0.2 | 4.56 ± 0.2 |  | 
75 | FDIQQGFDNPQVRFFLGDLCSRQD [NSDHL] | 2.94 ± 0.24 | 2.86 ± 0.31 |  | 
76 | RPPTPLFIPAKTGKDVATQILEGE [RSPH3] | 4.82 ± 0.15 | 5.01 ± 0.11 |  | 
77 | EAAVEALELLGATYVDKKRDLLGA [FEM1A] | 3.27 ± 0.31 | 3.49 ± 0.21 |  | 
78 | KDREFHELQGDFSVPDVPKSMAWC [VPS39] | 3.5 ± 0.33 | 3.31 ± 0.15 |  | 
79 | AGGGGGGAGAGAPGGGRLLLSTSL [INTS3] | 3.19 ± 0.12 | 2.94 ± 0.24 |  | 
80 | GLKPGPEDGPGKEEAPELDEAELD [SERTAD1] | 5.67 ± 0.34 | 5.83 ± 0.064 |  | 
81 | RYIIFKRNTLNQPCSGSVSLQPRR [GMCL1] | 2.27 ± 0.22 | 2.36 ± 0.43 |  | 
82 | WRTWMTITQSWQVSVRVQPRGRAH [C22orf15] | 2.38 ± 0.64 | 3.05 ± 0.39 |  | 
83 | ADSTSFDVQLGDIILTATDGLFDN [PPTC7] | 3.58 ± 0.22 | 3.68 ± 0.26 |  | 
84 | EPSRSASEADSEAGELRKPTQEEW [PPEF2] | 5.68 ± 0.33 | 5.81 ± 0.16 |  | 
85 | ERLYVIGGNHFRGTSDYDDVLSCE [KLHL13] | 3.28 ± 0.19 | 3.35 ± 0.18 |  | 
86 | NLKFITDPFVCRLRHLSPTPSEEH [OR4A15] | 2.54 ± 0.11 | 3 ± 0.2 |  | 
87 | DGMSGLAGVGLSGGAAGAGWCIFV [ELAVL3] | 2.83 ± 1.1 | 2.69 ± 0.98 |  | 
88 | LWLRPETHTKEQILELVVLEQFVA [ZNF24] | 2.26 ± 0.61 | 2.35 ± 0.45 |  | 
89 | SQVTATSGNGDFGDWSAFNQAPSG [CLINT1] | 4.59 ± 0.068 | 4.36 ± 0.21 |  | 

From the supplement of paper PMC10567573
